We go through one molecule from paper PMC1283526.

The data set concerns the target T1, GST-ELAV (UniProt P16914 76-483).
T1 sequence: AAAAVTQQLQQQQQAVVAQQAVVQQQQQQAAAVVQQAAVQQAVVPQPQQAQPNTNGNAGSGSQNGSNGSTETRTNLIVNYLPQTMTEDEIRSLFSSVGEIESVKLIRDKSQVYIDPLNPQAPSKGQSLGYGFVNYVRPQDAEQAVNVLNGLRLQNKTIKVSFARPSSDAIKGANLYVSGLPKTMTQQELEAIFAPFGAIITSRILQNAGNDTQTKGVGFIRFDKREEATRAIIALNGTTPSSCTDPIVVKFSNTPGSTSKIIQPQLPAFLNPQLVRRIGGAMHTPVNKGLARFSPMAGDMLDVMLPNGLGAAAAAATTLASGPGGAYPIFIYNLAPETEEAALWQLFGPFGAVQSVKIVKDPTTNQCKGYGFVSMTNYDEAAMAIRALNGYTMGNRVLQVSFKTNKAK
Briefly: competition.

B1: SSE 20mer (ssRNA)
RNA: AUUUUUAUUUGUUAUUUUUU
On to B1, for which the binding result is “binds”.
